Measured values reported in a protein production outcome set (Wang et al. 2014).

Test: label from the status in PepcDB records

Row | Sequence | protein production
1 | MLLITPDELKSYSVFESVKTRPDELLKQDILEATADIILKVGHDFSDAEYIPLPETVRLALLKLSQFYALINGDESIIKGYTTEKIGDYSYTLGDGSPLQKPDVYALIKDYVKPADPDLEGIEAKVRMRSILEHHHHHH | not failed
2 | MGRVKLELKRIEKSTNRQITFSKRKKGLIKKAYELSTLCDIDLALLMFSPSDRLCLFSGQTRIEDVLARYINLPDQERENAIVFPDQSKRQGIQNKEYLLRTLEKLKIEDDMALQINEPRFIPH | failed
3 | MLKERILSAIAMIIAVLAGIFLLSPLPFTLILAAVITAAIWEWAQFAGFKRSLSRAIITFVTICLFILLIFANTHYIRAGRFLTDQTIPLLFISCCWWLIAFGLVISYPKSASLWSKSITAKFIFGFCTLIPFFIAILALRFNNYAFNQFQGAYLLLYVCLLVWCADSGAYFFGRAFGKRKLAAKVSPSKSWEGALGGLITSCVMALLFIKLTPNNIFGREFETLPFIIVSVATVAVSSLGDLAESMFKRQANIKDSSNLIPGHGGILDRIDSLTAAIPFFATLFFFVL | failed
4 | MNDPQKLCDVNFFRPRKGYMTGEVAIIAAVLVGWAVANFGFQGVLALLAQSPDGEGILTRLTFLSFPWHFWFTGQFLPLWFIILCVLFNIYIDRHTEQHSRRRDRSHD | failed
5 | MTAFILVSGMFTGTHIWQDTAARLTARGAEVHTVALTGLDAPRAAAAPGVDLETHIADVLAVIDSVGAAGDRRIVLVGHDYGIHPAVGAADRRAERVDRIVHLDSGLPRDGVPALAAVPDQSLRERLAGAAGADGVLPPPAHEEWPRWGSTAGVPDAALDRLTALAAPQPLGTLLQPLRLTGAVDPVPTTGVLCTGNGTSIELVQMLVRLGDPALRPLTDPRVSFFELPTGHWPMLSLPAELTDVLLRAAAG | failed
6 | MASQIDQYAVFGNPINHSKSPFIHTLFARQTQQSMIYTAQCVPVDGFTEAAKHFFAQGGRGCNVTVPFKEEAYRFADRLTERARLAGAVNTLKKLDDGEILGDNTDGEGLVQDLLAQQVLLKGATILLIGAGGAARGVLKPLLDQQPASITVTNRTFAKAEQLAELVAAYGEVKAQAFEQLKQSYDVIINSTSASLDGELPAIDPVIFSSRSVCYDMMYGKGYTVFNQWARQHGCAQAIDGLGMLVGQAAESFMLWRGLRPGTKQILRELRKNLEGAL | not failed
7 | MVSSVLEVSHVFCCPNRVRGALSWNTGPGGLLAFGTSCSVVLYDPQKKVVITNLNGHTARVNCLQWIRTEDGSPSNELVSGGSENRVIHWELENNQVLKSVRLQGHEGPVCAVHAIYQSGPSEGEQHALIASAASDSTVRIWSKKGSEVKYLQTLSFRDGFVLSVCLAILPGTNVPVLACGDDDCRIHLYIQQDDQFQKALSLCGHEDWIRGVEWATFGRDLFLASCSQDCLIRIWRLYMKPASFETKDGSLRLKENTFTIKDGGVRTTVAVTLETVLAGHENWVNAVHWQPSFYKDGVLQQPVRLLSASMDKTMILWAPDEESGVWLEQVRVGEVGGNTLGFYDCQFGENGTMIIAHAFHGALHLWKQSTVNPRQWAPEIVISGHFDGVQDLMWDPEGEFIITTSTDQTTRLFAPWKKKDQKDRSQVTWHEIARPQIHGYNIKCLAMIDRFQFVSGADEKVLRVFSAPRNFVENFSVISRQSLSHMLCDDQDLPEGATVPALGLSNKALFQGDIASQPFEEDELISPAFGSPQVTFQPAVLNEPPTEDHLLQNTLWPEIQKLYGHGYEIVCVACNNSKTLLASACKASQKEHAAIILWSTASWKQVQSLAFHTLTVTQMTFSPDDKFLLAVSRDRTWSLWKRQDATSSEFDPFFSLFAFTNKITSVHSRIIWSCDWSPDNKYFFTGSRDKKVVVWGECKSSHNPMEHPIRPCSSILDVGSSVTAVSVCPVLNPAQRYIVAIGLESGKICIYSWNKTNQEINDWTSCVETNPSQSHSLGIRRLCWKSCSDDDDDDDDDDTEQSEEGPEWLHFASCGEDHTVKIYRVNRRAL | failed
8 | MKFTQRLSLRVRLTLIFLILASVTWLLSSFVAWKQTTDNVDELFDTQLMLFAKRLSTLDLNEINAADRMAQTPNKLKHGHVDDDALTFAIFTHDGRMVLNDGDNGEDIPYSYQREGFADGQLVGEDDPWRFVWMTSPDGKYRIVVGQEWEYREDMALAIVAGQLIPWLVALPIMLIIMMVLLGRELAPLNKLALALRMRDPDSEKPLNATGVPSEVRPLVESLNQLFARTHAMMVRERRFTSDAAHELRSPLTALKVQTEVAQLSDDDPQARKKALLQLHSGIDRATRLVDQLLTLSRLDSLDNLQDVAEIPLEDLLQSSVMDIYHTAQQAKIDVRLTLNAHGIKRTGQPLLLSLLVRNLLDNGPGVTPEALARIGERFYRPPGQTATGSGLGLSIVQRIAKLHDMNVEFGNAEQGGFEAKVSW | failed
9 | MHSNINTLIANHRAGHALDQAFYTDAEVFQTDLQEIFYKEWLFAIPACELDKPGSYVTHQVGNYNVIIVRGADNVIRAFHNACRHRGSVICKAKKGNNPKLVCPYHQWTYELDGRLLWARDMGPDFEPSRHGLKTVHCRELAGLIYICLADEAPDFERFAEVARPYLEVHDLSNAKVAHESSIVERGNWKLVWENNRECYHCGGNHPALCRTFPDDPSVTGIEGGETPSNLQAHFDRCEQAGMPSGFHLSGDGQFRVARMPLKEGAESYTMDGKTAVRRWLGRAAFADAGSLLKFHYPTTWNHFLSDHSIVFRVTPISPTETEVTTKWLVHKDAVEGVDYDLQRLTEVWIATNDEDREVVEFNQMGINSPAYEPGPYSPTQESGVLQFVEWYLSTLKRNSGPHAVAAE | not failed
10 | QEIKRYADEHEERYGRFPKTLIFAVQDLANSSSHADQIVDQARDIFGRGDSFVQKITGKVDRPLQRIREFRNRKEPGIAVTVDLLSTGVDVPDIEYIVFLRSMKSRILFEQMIGRGTRKGEH | failed
11 | MTTIPSTAEAKLEMLTTINRAIAGSRPEALPPYPVPAPLSRAEILHQFEDRILDYGAAYTHVSAAELPGAIAKALGNARRVIVPAGIPAPWLTVGMDVLRDEPPLSHAELDRADAVLTGCAVAISETGTIILDHRADQGRRALSLIPDFHICVVREDQIVQTVREGVEAVAASVREGRPLTWLSGGSATSDIELVRVEGVHGPRRLQVIVVG | not failed
12 | MLKFLSVRVEDHIAVATLNHAPANAMSSQVMHDVTELIDQVEKDDNIRVVVIHGEGRFFSAGADIKEFTSVTEAKQATELAQLGQVTFERVEKCSKPVIAAIHGAALGGGLEFAMSCHMRFATESAKLGLPELTLGLIPGFAGTQRLPRYVGKAKACEMMLTSTPITGAEALKWGLVNGVFAEETFLDDTLKVAKQIAGKSPATARAVLELLQTTKSSHYYEGVQREAQIFGEVFTSEDGREGVAAFLEKRKPSFSGR | not failed
13 | MKKRIILLLAVIIAAAAAGVAFYVAKDKGHEKAADVSVNTESGDELLVSITDTDLLTKYYENDKVIHEEKLTSYPAFALDQKQQVLYYTGNNEQNEMRLFKLDLKSHKKTMLYKGAESADSLFLSKDRSTIYFRLGKADESNFRIAAFDLKTKKYKNLYPAANDQDDTVSSFFYNQKNDSFALLHYSVEEDYKKTDEANEKGIDPEPTTIHFAEGRQNKFNELKSLNQFISDIAVSDDDKRILFTSYTQKGTEQTASIQMLNADTKKYESIISNQKSFKLLIDAQPQFSKDGKNIYFLAEAKGAKKLKDETGREAKVRTIYSYSLENKTFKKVWENPNGIINSFFVIN | failed
14 | MKRWIAIILIALMPAAQAGKAAKVTLVVDDVPVVQVLQALAEQERQNLVVSPDVSGTLSLHLTDVPWKQALQTVVNSAGLVLRQEGNILHVHSQAWQKEHSARQDAERLRLQANLPLENRSISLQYVDTGELAKAGEKLLSAKGTIMVDKRTNRLLLRDNRAALAELEKWVSQMDLPVAQVELAAHIVTINEKSLRELGVKWTLADATQAGAVGDVTTLSSDLSVAAATSRVGFNIGRINGRLLDLELSALEQKQQLDIIASPRLLASHLQPASIKQGSEIPYQVSSGESGATSVEFKEAVLGMEVTPTVLQKGRIRLKLHISQNVPGQVLQQADGEVLAIDKQEIETQVEVKSGETLALGGIFSRKNKSGSDSVPLLGDIPWLGQLFRHDGKEDERRELVVFITPRLVATE | failed
15 | MKIDLIISADDIKEEKVKNKTAVVIDMLRATSVITTALNNGCKRVVPVLTVEEALKKVKEYGKDAILGGERKGLKIEGFDFSNSPMEYTEDVVKGKTLIMTTTNGTRAIKGSETARDILIGSVLNGEAVAEKIVELNNDVVIVNAGTYGEFSIDDFICSGYIINCVMDRMKKLELTDAATTAQYVYKTNEDIKGFVKYAKHYKRIMELGLKKDFEYCCKKDIVKLVPQYTNGEIL | not failed
16 | MQSKGATGSKSEQRTGLLNGVAAYGMWGLVPLYWPLLKPAGAVEILAHRMVWSLALVAVALLVMRRWAWAGELLRQPRKLALVTVAAAVITVNWGVYIWAVNAGHVVEASLGYFINPLVTIALGVLILKERMRPWQWAAVGVAFTAVVVLTVGYGQPPWISLCLAFSFGTYGLVKKKVNLGGIESLAAETAIQFLPALAYLLWLTASGGSTFGTQGGAGHAALLASTGVVTAIPLVCFGAAAIRVPLSTLGLLQYLAPVFQFLLGILYFHEAMPPERWAGFALVWLALSLLTWDALRAAHRASRALRTAPSRIVADEQITPVYEHP | failed
17 | MAAAVPQRAWTVEQLRSEQLPKKDIIKFLQEHGSDSFLAEHKLLGNIKNVAKTANKDHLVTAYNHLFETK | not failed
18 | MYDYSILPNRIILCVDLRSFYASVSCIKMGLDPMHTKLAVVGDVNRNGSIVLAATPPLKALGVKKMARLYEIPRRKDILVVNPIMSTYIKCSNYITKLALQYVPIEDFHQYSIDEFFMDITDSIHLFAQDPYEFAMKFKREIYDHTRIECTIGIAPNPLMSKVALDIEAKKNKDGIAFWQYEDIPTKLWSIRPLNKFWGISYKTEEKLNRKGIYSIGDLANYPLKYLKQSFGKIGEELHLHSHGIDFSRISEKYVPATTSIGKSQILMRDYTIEEFPIILLEHIEEVCYRLRRQTKLAQTIHFSVGYSKSYTGGIRKTHTLNRPTNLTMDIYHICTYFLHQQYTGEPIRSINISLTNLIQEGEEQISLFDNVTKREQEMKLTKVMDEIRTKFGKNSILRGISYTHSATARHRNTLIGGHKS | failed
19 | MVEKGKMVKISYDGYVDGKLFDTTNEELAKKEGIYNPAMIYGPVAIFAGEGQVLPGLDEAILEMDVGEEREVVLPPEKAFGKRDPSKIKLIPLSEFTKRGIKPIKGLTITIDGIPGKIVSINSGRVLVDFNHELAGKEVKYRIKIEEVVDDKKNIVKEIVKMYVPRLSDVKVTIRNGTVKIELPEFAPFIPNIQTAKMAIANEILKRLEDAEKVSFVETFERKKETKEENK | failed
20 | RSLQLDKLVNEMTQHYENSVPEDLTVHVGDIVAAPLPTNGSWYRARVLGTLENGNLDLYFVDFGDNGDCPLKDLRALRSDFLSLPFQAIECSLARIA | not failed
21 | PGIERLAEEATASFPEARIAVLSSDMFGTARALKERIEAIAAGEADIVIGTQLVAKGHNFPLLTLVGVIDADLGLQGSDLRAAERTFQLMRQVAGRAGRAEKPGQALLQTYQPE | failed
22 | MLVQAIMTSPAITVTASASVAEAARLMLDNRISGLPVVGANGALVGIVSEGDFLRRSELSTERKRSWLLEWLTSSGRIAAEYVRTHGRRVEEVMTAPVSAIAPTASLSDAVRLMERQEIKRLPVVEGGRLVGIVARSDLLRALSQALPATSTSAGDAQIQAAIEAALAKQSWSRNGFIHSRVTDGIAELTGTVFDERERLAAKVAVENVAGVTSVKDQLVWVDPYYGIALPPPDAETSQA | failed
